We go through three molecules from paper PMC5890266, “Targeting the polyadenylation factor EhCFIm25 with RNA aptamers controls survival in Entamoeba histolytica”.

In this data set the target is T1, EhCFIm25 wild type (Entamoeba histolytica, UniProt C4M2T1 1-255).
T1 sequence: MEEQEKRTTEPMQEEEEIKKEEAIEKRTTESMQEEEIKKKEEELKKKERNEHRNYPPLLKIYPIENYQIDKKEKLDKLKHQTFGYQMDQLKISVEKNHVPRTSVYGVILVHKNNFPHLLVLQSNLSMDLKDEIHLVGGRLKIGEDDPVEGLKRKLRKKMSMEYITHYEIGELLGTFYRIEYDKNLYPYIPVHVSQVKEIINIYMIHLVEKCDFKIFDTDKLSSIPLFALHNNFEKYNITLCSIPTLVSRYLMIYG
The data set can be described thus: EMSA; REMSA: RNA probe (100 ng/ul) with 20 ug EhCFIm25 or 50 ug extract, room temperature 20 min, 10% non-denaturing PAGE, LightShift Chemiluminescent RNA EMSA Kit; buffer, salt and pH not stated. Particulars: protein: recombinant, tags: 6xHis (pRSET vector), chain copies: 2. For orientation: In EMSA bound probe runs differently from free probe, usually more slowly.

For AAUAAUACGACUCACUAUAGACGAAAUGGUUGUCAACGACGAUUA (ssRNA) [GUUG-probe], the binding result (label: biotin as probe) is reported as “binds”.

In the case of AAUAAUACGACUCACUAUAGACGAAAUGCAACUCAACGACGAUUA (ssRNA) [CAAC-probe], the binding result (label: biotin) is given as “no binding”.

B1: Ehthio-3'UTR (ssRNA)
RNA: AAGGGUAGGAAAAAUUGAAACAUUAAAAGAUUUUCCUUCUUUUAAAGACAGAGUAAAAGAACCAUAUGUUGCUCCAAAAUAUGAAGAAGAAGAACUUUAAAUAAUAACUUUUUCAAGAACAAAAAUUAAUAACAAAUUUAUUUUAUUUGAUUUUACAAUUCUUGUUAUUAUAUGUUGAUAUUUAUUUAAAAUACUCUUUCUUUUAAUUUUUGUUUUUAUUAACAAUAUAUUUUAUAUUAAAUAAAGUUUAAUGAAAAAAAAGUAUUAAAAAGUUGUAAUAAACCUAAUUAAUAAAUGUUU
On to B1, for which the binding result (label: biotin (Biotin RNA Labeling Mix)) was “binds”.
